Substrate in the data set: CC(=O)C=O
Description: purified protein. The class given is biochemical, Saccharomyces cerevisiae. The settings on record: two-substrate sequential model (model 2), co-substrate glutathione, 70 mM potassium phosphate pH 6.5, 30°C, no glyoxalase II.

B1: yeast glyoxalase I (EC 4.4.1.5); glyoxalase I from Saccharomyces cerevisiae (Sigma) (Saccharomyces cerevisiae S288C) (protein)
chain: MSTDSTRYPIQIEKASNDPTLLLNHTCLRVKDPARTVKFYTEHFGMKLLSRKDFEEAKFSLYFLSFPKDDIPKNKNGEPDVFSAHGVLELTHNWGTEKNPDYKINNGNEEPHRGFGHICFSVSDINKTCEELESQGVKFKKRLSEGRQKDIAFALGPDGYWIELITYSREGQEYPKGSVGNKFNHTMIRIKNPTRSLEFYQNVLGMKLLRTSEHESAKFTLYFLGYGVPKTDSVFSCESVLELTHNWGTENDPNFHYHNGNSEPQGYGHICISCDDAGALCKEIEVKYGDKIQWSPKFNQGRMKNIAFLKDPDGYSIEVVPHGLIA
notes: no tags or mass told
As a reminder, the Km is the concentration of substrate that gives half-maximal velocity. For B1, the Km was 1200 ± 190 µM and the kcat result is given as “(1.7±0.38)×10^5 min^−1”.

The values above are taken from publication PMC3293846, “Optimization of Time-Course Experiments for Kinetic Model Discrimination” (PLoS ONE, 2012).
